The assay deals with ALB蛋白(天然提取). As to the kind of experiment: AMC sensor, antibody immobilised at 10 ug/ml, ALB in gradient dilution in PBST.

Broadly, the Kd is a measure of binding affinity in units of concentration. Low values mean higher affinity, high ones lower affinity. The term koff denotes a measure of how fast the partners let go of each other. Read a high koff as a short-lived complex. Usually kon stands for the second-order rate constant of association. A lower kon goes with slower complex formation. Substance 对照 (antibody) gave a dissociation constant (Kd) of 32.4 nM, an off-rate constant (koff) of 0.000483 s⁻¹ and a kon of 14900 M⁻¹ s⁻¹.

Source of the values: patent CN117088975A.
